Measurements from patent US20240392013A1, “IL1RAP ANTIBODIES AND USES THEREOF” (STELEXIS THERAPEUTICS, LLC, priority 2021, published 2024).

Assays:
[1] = tested on: patient-derived AML samples; experiment: Cell viability of patient-derived AML samples, CellTiter-Glo; type: cell-based, human; conditions: 15 patient-derived AML samples; 0.1-100 nM, 6 days
Description: Primary patient-derived AML cells collected using leukapheresis or peripheral blood draw were selected based on expression levels of IL1RAP, IL1R1 and IL1RL1. On study day 0, cell viability was calculated, and cells were seeded at a density of 20,000 viable cells/well in 96-well plates. Cells were treated on Day 0 with IL1RAP monoclonal antibodies at a concentration of 100 nM followed by 5-fold serial dilutions. Cytarabine treatment (5 μM) was used as a positive control. Plates were kept at 37° C./5% CO2 in humified incubator and media was not changed during the duration of the assay. On Day 6, plates were removed from incubator and equilibrated to room temperature for up to 30 minutes. Then CellTiter-Glo was added to wells (100 μl) and plates were mixed for 2 minutes on plate rocker, followed by 10 minutes incubation at room temperature. Luminescent signal was recorded using Tecan plate reader and IC50s were calculated.

[2] = tested on: IL36γ-induced NFκB activity; experiment: HEKBlue-IL36 cell-based reporter assay; conditions: HEKBlue-IL36, FIG. 22
Description: Inhibition by STLX2012 was measured by the HEKBlue-IL36 cell-based reporter assay. The HEK-Blue IL36 (Invivogen, Cat #hil36r-hkb) cell line was used to monitor NFκB activity upon stimulation with IL36γ cytokine. In this cell line, the secreted embryonic alkaline phosphatase reporter gene (SEAP) is inducibly expressed under the control of IFN-β minimal promoter fused to NFκB/AP-1. Specificity to IL36γ cytokine was achieved by blockage of TNF-α and IL1 response. Cells are maintained in the presence of zeocin (100 μg/ml) and blasticidin (10 μg/ml).

AML patient samples = experiment: Proliferation of AML patient samples, Cell-Titer Glo; type: cell-based, human; conditions: 1 μM, 7 days
AML cells (THP-1) [3] = experiment: Expression of differentiation markers in AML cells, flow cytometry; type: cell-based, human; conditions: 150 μg/ml, 48 hours
Description: Methods: AML cells (THP-1) were seeded at 0.5×10^6/well in 6-well plate and were treated with IL1RAP antibody or IgG control at 150 μg/ml for 48 hours. After 48 hours cells were collected, and expression of differentiation markers was monitored by flow cytometry. Cells were stained for CD14 (BD, cat: 325620) and CD15 (Thermo, cat: 17-01-59-42) differentiation markers and data were analyzed with FlowJo.

SK-MEL-5 cells = experiment: Jurkat-Lucia NFAT-CD16 ADCC reporter assay against SK-MEL-5 cells; type: cell-based; conditions: SK-MEL-5 target cells
From the text: Methods: ADCC activity is mediated through binding of NK cell's CD16 receptors to the Fc region of antibodies. A Jurkat-Lucia NFAT-CD16 ADCC Reporter cell assay (Invivogen, Cat #jktl-nfat-cd16; https://www.invivogen.com/jurkat-lucia-nfat-adcc-adcp-cells) was used to analyze IL1RAP mAb STLX2012 for ADCC activity. Briefly, the Jurkat cell line was engineered to express the cell surface Fc receptor CD16A (FcγRIIIA) and the Lucia luciferase reporter gene. ADCC is triggered by CD16A cross-linking upon antigen-bound antibody binding at the surface of immune effector cells. Cells are maintained in the presence of zeocin (100 μg/ml) and blasticidin (10 μg/ml).
The STLX2012-DLE antibody was then analyzed for ADCC activity using the Jurkat-Lucia NFAT-CD16 ADCC Reporter cell assay, described in Example 11 above.

healthy control samples = experiment: Clonogenic capacity of healthy control samples; type: cell-based, human; conditions: 333 nM, two weeks
Description: AML patient samples or healthy control samples (4000 cells) were washed and resuspended in 30 μl Iscove's Modified Dulbecco's Medium (IMDM) media supplemented with 2% FBS. Cells […] were mixed with 3 ml methylcellulose (MthoCult H4034 Optimum) supplemented with pen/strep or primocin (100 μg/ml) and IL1RAP antibodies (333 nM) and 1 ml were seeded in 35 mm dishes in duplicates. The dishes were incubated at 37° C./5% CO2 in humidified incubator for 14-16 days. Colonies were counted using inverted microscope.

AML cells (THP-1) [4] = experiment: Proliferation of AML cells (THP-1), Cell-Titer Glo; type: cell-based, human; conditions: 66 nM, 4 days
Description: (§1) AML patient samples or cancer cells (AML and CML) were plated at density of 3×10^3 cells/well in two 96-well plates and incubated overnight at 37° C./5% CO2 in humidified incubator. The next day (Day 1) cells in one of the plates were treated with IL1RAP antibody at 10-150 μg/ml at a total volume of 100 μl. Plates were kept at 37° C./5% CO2 in humified for 3-6 days. Cells treated with vehicle or IgG served as controls and every treatment was conducted in triplicates. The second plate was treated on Day 1 with media and cell proliferation was measured on the same day by CellTiter-Glo (Promega, Cat #G7572). In more details, wells were mixed with equal volume (100 μl) of CellTiter-Glo and agitated for 2 minutes followed by 10 minutes incubation at room temperature in the dark. Luminescence signal was measured in Cytation™ (Biotek) plate reader. After 3-6 days, cell proliferation in the […] plates was measured separately in the same way.

CML cells (K562) = experiment: Proliferation of CML cells (K562), Cell-Titer Glo; type: cell-based, human; conditions: 333 nM, 3 days
Description: as §1

B1: 74804_12A21B: anti-IL1RAP mAb; VH SEQ ID NO:6, VL SEQ ID NO:23, κ light chain (antibody, V domains shown)
VH: QVQLLQSGAEVKKPGSSVKVSCKASGGTFSIYAIDWVRQAPGQGLEWMGGIIPIFGTANSAQKFQGRVTITADKSTSTAYMELSSLRSEDTAVYYCARNGATSDAFDMWGQGTMVTVSS
VL: EIVLTQSPGTLSLSPGERATLSCRASLSVSSNYLAWFQQRPGQAPRLLIHGVSRRATGIPDRFSGSGSGTDFTLTISRLEPEDFAVYYCQQYGSSPLTFGGGTKVEIK
modifications: 74804_12A21B VH and 74804_29D13A VH; 74804_12A21B VL
- Inhibition of viability [1]: inhibition of viability of patient-derived AML samples
- Inhibition of IL36γ-induced NFκB activity [2]: inhibition of the IL36γ-induced NFκB activity in a dose-dependent manner
- Inhibition of cell proliferation (AML patient samples): inhibited cell proliferation
- Expression of CD14 differentiation marker (AML cells (THP-1) [3]): induced the expression
- Expression of CD15 differentiation marker (AML cells (THP-1) [3]): induced the expression
- ADCC activity (reporter) (SK-MEL-5 cells): showed ADCC activity
- Effect on clonogenic capacity of healthy control samples (healthy control samples): did not affect the clonogenic capacity of healthy control samples
- Inhibition of cell proliferation (AML cells (THP-1) [4]): inhibited cell proliferation
- Inhibition of cell proliferation (CML cells (K562)): inhibited cell proliferation
